FireProtDB

B1: Inorganic pyrophosphatase, P0A7A9 (parent)
chain: MSLLNVPAGKDLPEDIYVVIEIPANADPIKYEIDKESGALFVDRFMSTAMFYPCNYGYINHTLSLDGDPVDVLVPTPYPLQPGSVIRCRPVGVLKMTDEAGEDAKLVAVPHSKLSKEYDHIKDVNDLPELLKAQIAHFFEHYKDLEKGKWVKVEGWENAEAAKAEIVASFERAKNK
B2: Tryptophan synthase alpha chain, P00929 (parent)
chain: MERYENLFAQLNDRREGAFVPFVTLGDPGIEQSLKIIDTLIDAGADALELGVPFSDPLADGPTIQNANLRAFAAGVTPAQCFEMLALIREKHPTIPIGLLMYANLVFNNGIDAFYARCEQVGVDSVLVADVPVEESAPFRQAALRHNIAPIFICPPNADDDLLRQVASYGRGYTYLLSRSGVTGAENRGALPLHHLIEKLKEYHAAPALQGFGISSPEQVSAAVRAGAAGAISGSAIVKIIEKNLASPKQMLAELRSFVSAMKAASRA
B3: Chemotaxis protein CheY, P0AE67 (parent)
chain: MADKELKFLVVDDFSTMRRIVRNLLKELGFNNVEEAEDGVDALNKLQAGGYGFVISDWNMPNMDGLELLKTIRADGAMSALPVLMVTAEAKKENIIAAAQAGASGYVVKPFTAATLEEKLNKIFEKLGM
B4: L-asparaginase 2, P00805 (parent)
chain: MEFFKKTALAALVMGFSGAALALPNITILATGGTIAGGGDSATKSNYTVGKVGVENLVNAVPQLKDIANVKGEQVVNIGSQDMNDNVWLTLAKKINTDCDKTDGFVITHGTDTMEETAYFLDLTVKCDKPVVMVGAMRPSTSMSADGPFNLYNAVVTAADKASANRGVLVVMNDTVLDGRDVTKTNTTDVATFKSVNYGPLGYIHNGKIDYQRTPARKHTSDTPFDVSKLNELPKVGIVYNYANASDLPAKALVDAGYDGIVSAGVGNGNLYKSVFDTLATAAKTGTAVVRSSRVPTGATTQDAEVDDAKYGFVASGTLNPQKARVLLQLALTQTKDPQQIQQIFNQY
B5: Persulfide dioxygenase ETHE1, mitochondrial, O95571 (parent)
chain: MAEAVLRVARRQLSQRGGSGAPILLRQMFEPVSCTFTYLLGDRESREAVLIDPVLETAPRDAQLIKELGLRLLYAVNTHCHADHITGSGLLRSLLPGCQSVISRLSGAQADLHIEDGDSIRFGRFALETRASPGHTPGCVTFVLNDHSMAFTGDALLIRGCGRTDFQQGCAKTLYHSVHEKIFTLPGDCLIYPAHDYHGFTVSTVEEERTLNPRLTLSCEEFVKIMGNLNLPKPQQIDFAVPANMRCGVQTPTA

Variants of: B1
Settings: Escherichia coli (strain K12); pH 7; Thermal; CD; HEPES 20 mM; MgCl2 5 mM; structure 1FAJ; whole UniProt chain shown

Variant	Tm [°C]
MSLLNVPAGKDLPEDIYVVIEIPANANPIKYEIDKESGALFVDRFMSTAMFYPCNYGYINHTLSLDGDPVDVLVPTPYPLQPGSVIRCRPVGVLKMTDEAGEDAKLVAVPHSKLSKEYDHIKDVNDLPELLKAQIAHFFEHYKDLEKGKWVKVEGWENAEAAKAEIVASFERAKNK [D27N]	83

Same assay, conditions: Escherichia coli (strain K12); pH 7; Thermal; CD; HEPES 20 mM; structure 1FAJ; whole UniProt chain shown

Variant	Tm [°C]
MSLLNVPAGKDLPEDIYVVIEIPANANPIKYEIDKESGALFVDRFMSTAMFYPCNYGYINHTLSLDGDPVDVLVPTPYPLQPGSVIRCRPVGVLKMTDEAGEDAKLVAVPHSKLSKEYDHIKDVNDLPELLKAQIAHFFEHYKDLEKGKWVKVEGWENAEAAKAEIVASFERAKNK [D27N]	58

Variants of: B2
Settings: Salmonella typhimurium (strain LT2 / SGSC1412 / ATCC 700720); pH 7.8; Thermal; Enzyme activity; sodium N/N-bis(2-hydroxyethyl)glycine 0.05 M; structure 2WSY; whole UniProt chain shown

Variant	Tm [°C]	change of melting temperature, mutant - wild type (higher = more stable) [°C]
MERYENLFAQLNDRREGAFVPFVTLGDPGIEQSLKIIDTLIDAGADALELGVPFSDPLADGPTIQNANLRAFAAGVTPAQCFEMLALIREKHPTIPIGLLMYANLVFNNGIDAFYARSEQVGVDSVLVADVPVEESAPFRQAALRHNIAPIFICPPNADDDLLRQVASYGRGYTYLLSRSGVTGAENRGALPLHHLIEKLKEYHAAPALQGFGISSPEQVSAAVRAGAAGAISGSAIVKIIEKNLASPKQMLAELRSFVSAMKAASRA [C118S]	41	-5

Variants of: B3
Settings: Escherichia coli (strain K12); pH 7; 25 °C; Urea; Fluorescence; Cacodylate 100 mM; structure 1CEY; whole UniProt chain shown

Variant	ddG of mutation (higher = less stable) [kcal/mol]	unfolding free energy [kcal/mol]
MADKELKFLVVADFSTMRRIVRNLLKELGFNNVEEAEDGVDALNKLQAGGYGFVISDWNMPNMDGLELLKTIRADGAMSALPVLMVTAEAKKENIIAAAQAGASGYVVKPFTAATLEEKLNKIFEKLGM [D12A]	-2.5	8.1

Variants of: B4
Settings: Escherichia coli (strain K12); pH 7.4; 25 °C; Urea; Fluorescence; Tris-HCl 50 mM; structure 3ECA; whole UniProt chain shown

Variant	unfolding free energy [kcal/mol]
MEFFKKTALAALVMGFSGAALALPNITILATGGAIAGGGDSATKSNYTVGKVGVENLVNAVPQLKDIANVKGEQVVNIGSQDMNDNVWLTLAKKINTDCDKTDGFVITHGTDTMEETAYFLDLTVKCDKPVVMVGAMRPSTSMSADGPFNLYNAVVTAADKASANRGVLVVMNDTVLDGRDVTKTNTTDVATFKSVNYGPLGYIHNGKIDYQRTPARKHTSDTPFDVSKLNELPKVGIVYNYANASDLPAKALVDAGYDGIVSAGVGNGNLYKSVFDTLATAAKTGTAVVRSSRVPTGATTQDAEVDDAKYGFVASGTLNPQKARVLLQLALTQTKDPQQIQQIFNQY [T34A]	11.5
MEFFKKTALAALVMGFSGAALALPNITILATGGSIAGGGDSATKSNYTVGKVGVENLVNAVPQLKDIANVKGEQVVNIGSQDMNDNVWLTLAKKINTDCDKTDGFVITHGTDTMEETAYFLDLTVKCDKPVVMVGAMRPSTSMSADGPFNLYNAVVTAADKASANRGVLVVMNDTVLDGRDVTKTNTTDVATFKSVNYGPLGYIHNGKIDYQRTPARKHTSDTPFDVSKLNELPKVGIVYNYANASDLPAKALVDAGYDGIVSAGVGNGNLYKSVFDTLATAAKTGTAVVRSSRVPTGATTQDAEVDDAKYGFVASGTLNPQKARVLLQLALTQTKDPQQIQQIFNQY [T34S]	11.2
MEFFKKTALAALVMGFSGAALALPNITILATGGTIAGGGDSATKSNYTVGKVGVENLVNAVPQLKDIANVKGEQVVNIGSQDMNDNVWLTLAKKINTDCDKTDGFVITHGTDTMEETAYFLDLTVKCDKPVVMVGAMRPSTSMAADGPFNLYNAVVTAADKASANRGVLVVMNDTVLDGRDVTKTNTTDVATFKSVNYGPLGYIHNGKIDYQRTPARKHTSDTPFDVSKLNELPKVGIVYNYANASDLPAKALVDAGYDGIVSAGVGNGNLYKSVFDTLATAAKTGTAVVRSSRVPTGATTQDAEVDDAKYGFVASGTLNPQKARVLLQLALTQTKDPQQIQQIFNQY [S144A]	12.4
MEFFKKTALAALVMGFSGAALALPNITILATGGTIAGGGDSATKSNYTVGKVGVENLVNAVPQLKDIANVKGEQVVNIGSQDMNDNVWLTLAKKINTDCDKTDGFVITHGTDTMEETAYFLDLTVKCDKPVVMVGAMRPSASMSADGPFNLYNAVVTAADKASANRGVLVVMNDTVLDGRDVTKTNTTDVATFKSVNYGPLGYIHNGKIDYQRTPARKHTSDTPFDVSKLNELPKVGIVYNYANASDLPAKALVDAGYDGIVSAGVGNGNLYKSVFDTLATAAKTGTAVVRSSRVPTGATTQDAEVDDAKYGFVASGTLNPQKARVLLQLALTQTKDPQQIQQIFNQY [T141A]	11.5

Variants of: B5
Settings: Homo sapiens; pH 7.5; Thermal; CD; Tris-HCl 50mM; NaCl 150mM; transition: 2; structure 4CHL; whole UniProt chain shown

Variant	Tm [°C]	change of melting temperature, mutant - wild type (higher = more stable) [°C]
MAEAVLRVARRQLSQRGGSGAPILLRQMFEPVSCTFTYLLGDRESREAVLIDPVLETAPRDAQLIKELGLRLLYAVNTHCHADHITGSGLLRSLLPGCQSVISRLSGAQADLHIEDGDSIRFGRFALETRASPGHTPGCVTFVLNDHSMAFTGDALLIRGCGWTDFQQGCAKTLYHSVHEKIFTLPGDCLIYPAHDYHGFTVSTVEEERTLNPRLTLSCEEFVKIMGNLNLPKPQQIDFAVPANMRCGVQTPTA [R163W]	52	-10
